Target: the molecule itself
Experiment: SEC; size-exclusion chromatography of the purified protein on a Superdex S200 10/300 GL column

B1: Cas4 protein SSO1391 from Sulfolobus solfataricus (enzyme, UniProt Q97YD4 1-291, looked up)
chain: MFFTHSDMLLLSKRIKKLPKNVDEELRGWNWSEPPVYTRSLSQVSISEMVYCSTLRNVYLKVKGFRGEIGRQILQGSLIHTIYAIGIEAIKRFIYSRESIDGSTLRTLMGDEFYSLLKDLREEEGIYAKVLWDHITNIYSAELDRVRSKFTNLTRDSLVSQVVPFYVEFPVDGSLLGLTNLRVDAFIPHLPLIAEMKTGKYRYTHELSLAGYALAIESQYEIPIDFGYLCYVTVTEKEVKNNCKLIPISDSLRSEFLDMRDKAQDIMDKGVDPGIAKDCESDCMFYKVCHP
notes: Cas4 protein SSO1391 (DUF911 family), Sulfolobus solfataricus; predicted molecular mass 35.9 kDa
- stoichiometry N: 2

— publication PMC4176176, “The CRISPR-associated Cas4 protein Pcal_0546 from Pyrobaculum calidifontis contains a [2Fe-2S] cluster: crystal structure and nuclease activity” (Nucleic Acids Research, 2014)
